Laboratory results taken from patent US20210061914A1 (published 2021).

What was measured:
[1] = biological target: HLA-B*35:01_… (HLA-PEPTIDE target G5), soluble (human, enzymatically biotinylated (BirA)); assay: scFv PPE ELISA
[2] = biological target: HLA-A*02:01_… (HLA-PEPTIDE target G8), soluble (human, enzymatically biotinylated (BirA) for screening and BLI); assay: scFv PPE ELISA

Row | Binder | fold selective binding, target pHLA vs minipool of negative control pHLAs [1] [fold] | fold selective binding, target pHLA vs minipool of negative control pHLAs [2] [fold]
1 | scFv G5R4-P4B01 (scFv, V domains shown, scFv) VH: QVQLVQSGAEVKKPGSSVKVSCKASGGTFSSYAISWVRQAPGQGLEWMGGIIPIVGTANYAQKFQGRVTITADESTSTAYMELSSLRSEDTAVYYCARGGSYYYYGMDVWGQGTTVTVSS VL: not shown | ≥ 3 | –
2 | scFv G8-P2C11 (scFv, V domains shown, scFv) VH: QVQLVQSGAEVKKPGASVKVSCKASGYTFTSYAMNWVRQAPGQGLEWMGWINPNSGGTNYAQKFQGRVTMTRDTSTSTVYMELSSLRSEDTAVYYCAKDPFWSGHYYYYGMDVWGQGTTVTVSS VL: not shown | – | ≥ 3
3 | scFv G5-P4E04 (scFv, V domains shown, scFv) VH: QVQLVQSGAEVKKPGASVKVSCKASGGTFSSYGISWVRQAPGQGLEWMGWINPNSGVTKYAQKFQGRVTMTRDTSTSTVYMELSSLRSEDTAVYYCARGDYYFDYWGQGTLVTVSS VL: DIQMTQSPSSLSASVGDRVTITCRASQSISRFLNWYQQKPGKAPKLLIYGASRPQSGVPSRFSGSGSGTDFTLTISSLQPEDFATYYCQQSYSTPLTFGQGTKVEIK | ≥ 3 | –
4 | scFv G5-P1-E05 (scFv, V domains shown, scFv) VH: QVQLVQSGAEVKKPGASVKVSCKASGYTFTSYNMHWVRQAPGQGLEWMGWINPNSGGTNYAQKFQGRVTMTRDTSTSTVYMELSSLRSEDTAVYYCARDVMDVWGQGTTVTVSS VL: DIQMTQSPSSLSASVGDRVTITCRASQGISNYLNWYQQKPGKAPKLLIYYASSLQSGVPSRFSGSGSGTDFTLTISSLQPEDFATYYCQQTYMMPYTFGQGTKVEIK | ≥ 3 | –
5 | scFv G5-P1C12 (scFv, V domains shown, scFv) VH: QVQLVQSGAEVKKPGSSVKVSCKASGGTFSNFGVSWLRQAPGQGLEWMGGIIPILGTANYAQKFQGRVTITADESTSTAYMELSSLRSEDTAVYYCATPTNSGYYGPYYYYGMDVWGQGTTVTVSS VL: DIQMTQSPSSLSASVGDRVTITCRASQSISSWLAWYQQKPGKAPKLLIYAASTLQSGVPSRFSGSGSGTDFTLTISSLQPEDFATYYCQQSYSIPLTFGGGTKVEIK | ≥ 3 | –
6 | scFv R3G8-P2C10 (scFv, V domains shown, scFv) VH: QVQLVQSGAEVKKPGASVKVSCKASGYTFTSYYMHWVRQAPGQGLEWMGWINPYSGGTNYAQKFQGRVTMTRDTSTSTVYMELSSLRSEDTAVYYCAKGGIYYGSGSYPSWGQGTLVTVSS VL: DIQMTQSPSSLSASVGDRVTITCRASQDVSTWLAWYQQKPGKAPKLLIYAASSLQSGVPSRFSGSGSGTDFTLTISSLQPEDFATYYCQQSHSTPQTFGQGTKVEIK | – | ≥ 3
7 | scFv R3G8-P5C03 (scFv, V domains shown, scFv) VH: QVQLVQSGAEVKKPGASVKVSCKASGYTFTSYYMHWVRQAPGQGLEWMGWMNPNSGNTGYAQKFQGRVTMTRDTSTSTVYMELSSLRSEDTAVYYCARGLLGFGEFLTYGMDVWGQGTLVTVSS VL: DIQMTQSPSSLSASVGDRVTITCRASQGISNWLAWYQQKPGKAPKLLIYAASTLQSGVPSRFSGSGSGTDFTLTISSLQPEDFATYYCQQTYSTPWTFGQGTKLEIK | – | ≥ 3
8 | scFv R3G8-P2E04 (scFv, V domains shown, scFv) VH: QVQLVQSGAEVKKPGSSVKVSCKASGGTFSSYGVSWVRQAPGQGLEWMGWISPYSGNTDYAQKFQGRVTITADESTSTAYMELSSLRSEDTAVYYCARGLYYMDVWGKGTTVTVSS VL: DIQMTQSPSSLSASVGDRVTITCRASQSISSWLAWYQQKPGKAPKLLIYDASNLETGVPSRFSGSGSGTDFTLTISSLQPEDFATYYCQQSYSTPLTFGGGTKLEIK | – | ≥ 3
9 | scFv G8-P1D02 (scFv, V domains shown, scFv) VH: EVQLLESGGGLVQPGGSLRLSCAASGFTFSSYWMSWVRQAPGKGLEWVSSISGRGDNTYYADSVKGRFTISRDNSKNTLYLQMNSLRAEDTAVYYCARASGSGYYYYYGMDVWGQGTTVTVSS VL: DIQMTQSPSSLSASVGDRVTITCQASQDISNYLNWYQQKPGKAPKLLIYAASSLQSGVPSRFSGSGSGTDFTLTISSLQPEDFATYYCQQSYSAPYTFGGGTKVEIK | – | ≥ 3
10 | scFv G5-P1B12 (scFv, V domains shown, scFv) VH: EVQLLESGGGLVQPGGSLRLSCAASGFTFSNSDMNWVRQAPGKGLEWVASISSSGGYINYADSVKGRFTISRDNSKNTLYLQMNSLRAEDTAVYYCAKVNWNDGPYFDYWGQGTLVTVSS VL: DIQMTQSPSSLSASVGDRVTITCRASQSISSWLAWYQQKPGKAPKLLIYAASSLQSGVPSRFSGSGSGTDFTLTISSLQPEDFATYYCQQANSFPLTFGGGTKVEIK | ≥ 3 | –
11 | scFv R3G8-P4F05 (scFv, V domains shown, scFv) VH: QVQLVQSGAEVKKPGASVKVSCKASGYTFSNMYLHWVRQAPGQGLEWMGWINPNTGDTNYAQTFQGRVTMTRDTSTSTVYMELSSLRSEDTAVYYCARGLYGDYFLYYGMDVWGQGTKVTVSS VL: DIQMTQSPSSLSASVGDRVTITCRASQGISNYLAWYQQKPGKAPKLLIYAASTLQSGVPSRFSGSGSGTDFTLTISSLQPEDFATYYCQQSYSTPLTFGGGTKVEIK | – | ≥ 3
12 | scFv G8-P2B05 (scFv, V domains shown, scFv) VH: EVQLLESGGGLVQPGGSLRLSCAASGFDFSIYSMNWVRQAPGKGLEWVSAISGSGGSTYYADSVKGRFTISRDNSKNTLYLQMNSLRAEDTAVYYCASNGNYYGSGSYYNYWGQGTLVTVSS VL: DIQMTQSPSSLSASVGDRVTITCRASQSISRWLAWYQQKPGKAPKLLIYAASSLQSGVPSRFSGSGSGTDFTLTISSLQPEDFATYYCQQYSTYPITIGQGTKVEIK | – | ≥ 3
13 | scFv G5R4-P2H8 (scFv, V domains shown, scFv) VH: EVQLLESGGGLVQPGGSLRLSCAASGFTFTSYSMHWVRQAPGKGLEWVSSITSFTNTMYYADSVKGRFTISRDNSKNTLYLQMNSLRAEDTAVYYCAKDLGSYGGYYWGQGTLVTVSS VL: not shown | ≥ 3 | –
14 | scFv G5R4-P1D06 (scFv, V domains shown, scFv) VH: QVQLVQSGAEVKKPGASVKVSCKASGYTFTSYDINWVRQAPGQGLEWMGWINPNSGDTKYSQKFQGRVTMTRDTSTSTVYMELSSLRSEDTAVYYCARDGTRYYGMDVWGQGTTVTVSS VL: not shown | ≥ 3 | –
15 | scFv G8-P1H08 (scFv, V domains shown, scFv) VH: QVQLVQSGAEVKKPGASVKVSCKASGYTFGNYFMHWVRQAPGQGLEWMGMVNPSGGSETFAQKFQGRVTMTRDTSTSTVYMELSSLRSEDTAVYYCAASTWIQPFDYWGQGTLVTVSS VL: DIQMTQSPSSLSASVGDRVTITCRASQGINSYLAWYQQKPGKAPKLLIYDASNLETGVPSRFSGSGSGTDFTLTISSLQPEDFATYYCQQHNSYPPTFGQGTKLEIK | – | ≥ 3
16 | scFv G8-P1C01 (scFv, V domains shown, scFv) VH: QVQLVQSGAEVKKPGASVKVSCKASGGTFSSHAISWVRQAPGQGLEWMGVIIPSGGTSYTQKFQGRVTMTRDTSTSTVYMELSSLRSEDTAVYYCARGDYYDSSGYYFPVYFDYWGQGTLVTVSS VL: DIQMTQSPSSLSASVGDRVTITCRASQNIYTYLNWYQQKPGKAPKLLIYDASNLETGVPSRFSGSGSGTDFTLTISSLQPEDFATYYCQQANGFPLTFGGGTKVEIK | – | ≥ 3
17 | scFv G8-P2E06 (scFv, V domains shown, scFv) VH: QVQLVQSGAEVKKPGASVKVSCKASGYTLTTYYMHWVRQAPGQGLEWMGWINPNSGGTNYAQKFQGRVTMTRDTSTSTVYMELSSLRSEDTAVYYCARAVYYDFWSGPFDYWGQGTLVTVSS VL: DIQMTQSPSSLSASVGDRVTITCRASQGISNSLAWYQQKPGKAPKLLIYAASSLQSGVPSRFSGSGSGTDFTLTISSLQPEDFATYYCQQANSFPWTFGQGTKLEIK | – | ≥ 3
18 | scFv G5R4-P4A07 (scFv, V domains shown, scFv) VH: QVQLVQSGAEVKKPGASVKVSCKASGYTFTSYYMHWVRQAPGQGLEWMGWMNPNSGNTGYAQKFQGRVTMTRDTSTSTVYMELSSLRSEDTAVYYCARELPIGYGMDVWGQGTTVTVSS VL: not shown | ≥ 3 | –
19 | scFv G5R4-P1H11 (scFv, V domains shown, scFv) VH: EVQLLESGGGLVKPGGSLRLSCAASGFTFSDYYMSWVRQAPGKGLEWVSYISSSSSYTNYADSVKGRFTISRDDSKNTLYLQMNSLKTEDTAVYYCARDVVANFDYWGQGTLVTVSS VL: EIVMTQSPATLSVSPGERATLSCRASQSVSSNLAWYQQKPGQAPRLLIYAASARASGIPARFSGSGSGTEFTLTISSLQSEDFAVYYCQQYGSWPRTFGQGTKVEIK | ≥ 3 | –
20 | scFv R3G8-P5F02 (scFv, V domains shown, scFv) VH: QVQLVQSGAEVKKPGASVKVSCKASGYTFTGYYIHWVRQAPGQGLEWMGVINPSGGSTTYAQKLQGRVTMTRDTSTSTVYMELSSLRSEDTAVYYCARDRDSSWTYYYYGMDVWGQGTTVTVSS VL: EIVMTQSPATLSVSPGERATLSCRASQSVGNSLAWYQQKPGQAPRLLIYGASTRATGIPARFSGSGSGTEFTLTISSLQSEDFAVYYCQQYGSSPYTFGQGTKVEIK | – | ≥ 3
21 | scFv R3G8-P5G08 (scFv, V domains shown, scFv) VH: QVQLVQSGAEVKKPGASVKVSCKASGYTFTSNYMHWVRQAPGQGLEWMGWMNPNSGNTGYAQKFQGRVTMTRDTSTSTVYMELSSLRSEDTAVYYCARGLYGDYFLYYGMDVWGQGTTVTVSS VL: not shown | – | ≥ 3
22 | scFv G5R4-P2B10 (scFv, V domains shown, scFv) VH: QVQLVQSGAEVKKPGASVKVSCKASGGTFSSYAISWVRQAPGQGLEWMGWMNPDSGSTGYAQRFQGRVTMTRDTSTSTVYMELSSLRSEDTAVYYCARGHSSGWYYYYGMDVWGQGTTVTVSS VL: not shown | ≥ 3 | –
23 | scFv G5R4-P3G05 (scFv, V domains shown, scFv) VH: QVQLVQSGAEVKKPGASVKVSCKASGYTFTNYYMHWVRQAPGQGLEWMGIINPSGGSTSYAQKFQGRVTMTRDTSTSTVYMELSSLRSEDTAVYYCARSWFGGFNYHYYGMDVWGQGTTVTVSS VL: DIQMTQSPSSLSASVGDRVTITCQASEDISNHLNWYQQKPGKAPKLLIYDALSLQSGVPSRFSGSGSGTDFTLTISSLQPEDFATYYCQQANSFPFTFGPGTKVDIK | ≥ 3 | –
